Where a chain is given by its changes, count along the chain named. In names and notes the source's numbering stands.
T1: Slr1022 (Synechocystis sp. PCC 6803, UniProt P73133)
T1 construct: gene argD
T1 sequence (P73133 1-429): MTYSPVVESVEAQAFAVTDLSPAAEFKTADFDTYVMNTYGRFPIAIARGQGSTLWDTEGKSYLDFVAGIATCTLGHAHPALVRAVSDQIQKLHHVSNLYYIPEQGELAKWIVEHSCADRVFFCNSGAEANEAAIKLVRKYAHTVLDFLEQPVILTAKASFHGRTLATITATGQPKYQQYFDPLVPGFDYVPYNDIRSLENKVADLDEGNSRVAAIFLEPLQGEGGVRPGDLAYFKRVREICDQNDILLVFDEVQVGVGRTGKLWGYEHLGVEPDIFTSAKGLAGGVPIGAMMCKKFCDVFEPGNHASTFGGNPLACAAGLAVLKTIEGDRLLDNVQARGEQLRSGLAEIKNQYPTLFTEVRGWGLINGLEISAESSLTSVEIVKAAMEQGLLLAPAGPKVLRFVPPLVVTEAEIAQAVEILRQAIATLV

B1: recombinant Slr1022 protein (N-acetylornithine aminotransferase encoded by slr1022 gene from Synechocystis sp. PCC6803) (enzyme, UniProt P73133 1-429, looked up)
chain: T1 sequence (P73133 1-429)
notes: N-acetylornithine aminotransferase (AcOAT) encoded by the slr1022 (argD) gene of Synechocystis sp; PCC6803; monomer printed as 49 kDa; The purified protein carries the cofactor PLP as internal aldimine (absorption at 410 nm); also called AcOAT; wild-type Slr1022; source: E. coli BL21 (DE3), pET28a-slr1022, purified (Ni-NTA)
B2: Slr1022 (Synechocystis sp. PCC 6803 substr. Kazusa; A127S) (protein)
chain: T1 sequence (P73133 1-429) with A127S
B3: Slr1022 (Synechocystis sp. PCC 6803 substr. Kazusa; E223A) (protein)
chain: T1 sequence (P73133 1-429) with E223A
B4: Slr1022 (Synechocystis sp. PCC 6803 substr. Kazusa; D251E) (protein)
chain: T1 sequence (P73133 1-429) with D251E
B5: Slr1022 (Synechocystis sp. PCC 6803 substr. Kazusa; Y39F) (protein)
chain: T1 sequence (P73133 1-429) with Y39F
B6: Slr1022 (Synechocystis sp. PCC 6803 substr. Kazusa; T308A) (protein)
chain: T1 sequence (P73133 1-429) with T308A
B7: Slr1022 (Synechocystis sp. PCC 6803 substr. Kazusa; E223S) (protein)
chain: T1 sequence (P73133 1-429) with E223S
B8: Slr1022 (Synechocystis sp. PCC 6803 substr. Kazusa; S125A) (protein)
chain: T1 sequence (P73133 1-429) with S125A
B9: Slr1022 (Synechocystis sp. PCC 6803 substr. Kazusa; Q254A) (protein)
chain: T1 sequence (P73133 1-429) with Q254A

How the values were obtained:
Slr1022 = target: T1, Slr1022; assay: UV-visible absorption at […] nm (internal aldimine); format: binding; conditions: 100 mmol/L Tris-HCl pH 8.5; covalent (Schiff base)
purified protein [1] = substrate: NCCCC(=O)O; assay: purified protein; conditions: 0.5 mmol/L α-KG, 0.05 mmol/L PLP, 2 mmol/L Mg2+, 2 mmol/L NADP+, 100 mmol/L Tris-HCl pH 8.5, 25 °C, apparent
purified protein [2] = substrate: NCCC[C@H](N)C(=O)O; assay: purified protein; conditions: 0.5 mmol/L α-KG, 0.1 mmol/L PLP, 6 mmol/L NAD+, 100 mmol/L Tris-HCl pH 8.5, 25 °C, apparent
[3] = target: the molecule itself; assay: SEC; FPLC, Bio-Rad NGC system, ENrich SEC 650 gel filtration column, mobile phase standard PBS without exogenous PLP; mass calibrated with myoglobin, ovalbumin, bovine serum albumin and gamma-globulin
purified protein [4] = substrate: O=C(O)CCC(=O)C(=O)O; assay: purified protein; format: biochemical, Synechocystis sp. PCC 6803; conditions: 100 mmol/L Orn as amino donor, 0.1 mmol/L PLP, 6 mmol/L NAD+, 100 mmol/L Tris-HCl pH 8.5, 25 °C, apparent
purified protein [5] = substrate: CC(=O)N[C@@H](CCCN)C(=O)O; assay: purified protein; format: biochemical, Synechocystis sp. PCC 6803; conditions: saturating α-KG, 0.1 mmol/L PLP, 6 mmol/L NAD+, 100 mmol/L Tris-HCl pH 8.5, 25 °C, apparent

| Molecule | Km (purified protein [5]) [µM] | kcat (purified protein [5]) [s⁻¹] | further results |
| --- | --- | --- | --- |
| Cc1ncc(COP(=O)(O)O)c(C=O)c1O [PLP] | – | – | UV-visible absorption at 410 nm (internal aldimine) (Slr1022): indicating that the cofactor PLP was bound to Slr1022 in the form of internal aldimine |
| B1 | – | – | Km (purified protein [1]): 78100 ± 18700 µM; kcat (purified protein [1]): 0.14 s⁻¹; kcat/Km (purified protein [1]): 1.8 M⁻¹ s⁻¹; Km (purified protein [2]): 20900 ± 3500 µM; kcat (purified protein [2]): 0.16 s⁻¹; kcat/Km (purified protein [2]): 7.7 M⁻¹ s⁻¹; stoichiometry N [3]: 2; Km (purified protein [4]): 130 ± 30 µM; kcat (purified protein [4]): 0.11 ± 0.01 s⁻¹; kcat/Km (purified protein [4]): 846 M⁻¹ s⁻¹ |
| B2 | 590 ± 120 | 0.21 ± 0.01 | – |
| B3 | 7770 ± 1760 | 1.17 ± 0.09 | – |
| B4 | 1390 ± 220 | 0.47 ± 0.03 | – |
| B5 | 470 ± 50 | 0.17 ± 0.01 | – |
| B6 | 140 ± 20 | 0.007 ± 0.002 | – |
| B7 | 8810 ± 2960 | 3.67 ± 0.43 | – |
| B8 | 230 ± 20 | 0.32 ± 0.01 | – |
| B9 | 110 ± 10 | 0.02 ± 0.0005 | – |
